The record followed here is patent US20210101937A1.

The test deals with CD137 (UniProt Q07011). Nature of the test: cell-based or functional assay.
CD137, sequence (Q07011 24-255 limits assumed): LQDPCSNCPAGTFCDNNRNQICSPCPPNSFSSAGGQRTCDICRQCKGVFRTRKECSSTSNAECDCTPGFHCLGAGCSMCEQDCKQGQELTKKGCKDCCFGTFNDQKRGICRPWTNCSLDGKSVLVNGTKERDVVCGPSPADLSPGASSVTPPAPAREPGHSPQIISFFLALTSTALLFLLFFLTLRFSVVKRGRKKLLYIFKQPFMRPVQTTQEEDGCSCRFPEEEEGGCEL

The substance BCY9173 (peptide) showed an EC50, CD137 reporter coculture assay with PC3 cells of 0.54 nM and an Emax, CD137 reporter coculture assay with PC3 cells (fold over background) of 42.

BCY10000 (peptide): the EC50, CD137 reporter coculture assay with NCI-H292 cells was determined as 1.1 nM and the Emax, CD137 reporter coculture assay with NCI-H292 cells (fold over background) came to 28.
